Results on 44 molecules are retold here after paper PMC9352680, “A comprehensive thermodynamic model for RNA binding by the Saccharomyces cerevisiae Pumilio protein PUF4”.

First the molecules themselves.
T1: PUF4 RNA-binding domain (Saccharomyces cerevisiae, UniProt P25339 537-888)
T1 sequence: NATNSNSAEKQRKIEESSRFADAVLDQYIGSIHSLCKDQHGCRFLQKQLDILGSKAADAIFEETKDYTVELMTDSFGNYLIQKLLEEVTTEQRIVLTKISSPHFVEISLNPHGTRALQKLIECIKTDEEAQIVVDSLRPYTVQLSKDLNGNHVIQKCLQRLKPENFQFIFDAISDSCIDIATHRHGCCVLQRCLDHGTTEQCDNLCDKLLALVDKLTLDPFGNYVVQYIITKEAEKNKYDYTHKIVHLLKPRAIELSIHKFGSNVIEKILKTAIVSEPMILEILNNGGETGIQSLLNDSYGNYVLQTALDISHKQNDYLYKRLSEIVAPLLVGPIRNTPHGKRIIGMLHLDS

One may read the Kd as the equilibrium constant for the complex coming apart.

The data set addresses T1, PUF4 RNA-binding domain. Briefly: Mg; RNA-MaP; 20 mM Na-HEPES pH 7.4, 30 mM KOAc, 0.75 mM MgCl2, 0.1% Tween-20, 5% glycerol, 0.1 mg/mL BSA, 2 mM DTT; 25 C; 0.0125-409.6 nM protein. The following applies: tags: N-His6-TEV cleaved; C-SNAP kept, Cy3B-labelled; label: tethered on chip by stalled RNA polymerase.
The molecule UCUCUUUCUUGUAUUUUAAUUCUCUU (ssRNA) [Id_iii_S1_P4E.8_K4.4_C4.3_H4.1_A4.2_F4.1_T4.2_[G10A]] had a Kd of 3.62 nM.

Regarding UCUCUUUCUUAUAUAUUAGCUCUCUU (ssRNA) [Id_iii_S1_P4E.6_K4.2_C4.3_H4.2_A4.1_F4.1_T4.2_[T11C]], the Kd worked out at 8.45 nM.

In turn, UCUCUUUCGUGUAAAUAUAUCUCUU (ssRNA) [Id_iii_S1_P3E.8_K3.4_C3.3_[T-1G]_H3.1_A3.2_F3.1_T3.2] registered a Kd of 18.6 nM. This Kd is about 2.2-fold higher than that of the molecule before.

The molecule UCUCUUUCUACACUAUUACUUCUCUU (ssRNA) [Id_iii_S1_P4E.7_K4.3_C4.3_H4.3_A4.1_F4.1_T4.2_[G10C]] came in with a Kd of 2190 nM. Compared with the last molecule, the Kd is about 120-fold higher.

Consider UCUCUUUUUUGUAAAAAUAUCUCUU (ssRNA) [Id_iii_S1_P3E.9_K3.5_C3.3_[C-2T]_H3.1_A3.2_F3.2_T3.2], for which the Kd turned out to be 78.2 nM.

Consider UCUCUUUCAUGUAUAUUAGUUCUCUU (ssRNA) [Id_iii_S1_P4E.5_K4.1_C4.3_[T-1A]_H4.1_A4.1_F4.1_T4.2], for which binding was put at a Kd of 0.332 nM.

The molecule UCUCUUUGUUGUAUAUUAGUUCUCUU (ssRNA) [Id_iii_S1_P4E.5_K4.1_C4.3_[C-2G]_H4.1_A4.1_F4.1_T4.2] had a Kd of 0.332 nM. This lies in the sub-nanomolar range.

In turn, UCUCUUUUUUGUAAAUAUAUCUCUU (ssRNA) [Id_iii_S1_P3E.8_K3.4_C3.3_[C-2T]_H3.1_A3.2_F3.1_T3.2] registered a Kd of 17.6 nM.

As for UCUCUUUCCUGUAAAUAUAUCUCUU (ssRNA) [Id_iii_S1_P3E.8_K3.4_C3.3_[T-1C]_H3.1_A3.2_F3.1_T3.2], the affinity, expressed as Kd, was 11.1 nM.

Molecule UCUCUUACUUGUAAAUAUAUCUCUU (ssRNA) [Id_iii_S1_P3E.8_K3.4_C3.3_[T-3A]_H3.1_A3.2_F3.1_T3.2] displayed a Kd of 25.7 nM.

In turn, UCUCUUUCGUGUAUUUAAGUUCUCUU (ssRNA) [Id_iii_S1_P4E.9_K4.5_C4.3_[T-1G]_H4.1_A4.2_F4.2_T4.2] gave a Kd of 694 nM.

In the case of UCUCUUUGUCUAAUUAUCUCUU (ssRNA) [Ib_S1_P5E.1_K5.1_C5.1_H5.1_[A4C]_A5.1_[T6A]_F5.1_T5.1], the Kd is 115 nM.

UCUCUUUAUACACUAUUAGUUCUCUU (ssRNA) [Id_iii_S1_P4E.7_K4.3_C4.3_[C-2A]_H4.3_A4.1_F4.1_T4.2] had a Kd of 39.2 nM.

In the case of UCUCUUUCAUGUAAAUAUAUCUCUU (ssRNA) [Id_iii_S1_P3E.8_K3.4_C3.3_[T-1A]_H3.1_A3.2_F3.1_T3.2], the Kd was 19.7 nM.

On to UCUCUUUGUUGUAUUUAAGUUCUCUU (ssRNA) [Id_iii_S1_P4E.9_K4.5_C4.3_[C-2G]_H4.1_A4.2_F4.2_T4.2], for which the Kd stood at 155 nM.

The molecule UCUCUUUAUUGUAAAUAUAUCUCUU (ssRNA) [Id_iii_S1_P3E.8_K3.4_C3.3_[C-2A]_H3.1_A3.2_F3.1_T3.2] yielded a Kd of 18.2 nM.

For the molecule UCUCUUUCUUGUAAAUAAAUCUCUU (ssRNA) [Id_iii_S1_P3E.8_K3.4_C3.3_H3.1_A3.2_F3.1_T3.2_[T9A]], binding was put at a Kd of 40.2 nM. This Kd lies about 2.2-fold higher than the previous one.

Molecule UCUCUUUUUUGUAUUUAAGUUCUCUU (ssRNA) [Id_iii_S1_P4E.9_K4.5_C4.3_[C-2T]_H4.1_A4.2_F4.2_T4.2] registered a Kd of 618 nM.

Molecule UCUCUUUCUUAUAUAUUAAUUCUCUU (ssRNA) [Id_iii_S1_P4E.6_K4.2_C4.3_H4.2_A4.1_F4.1_T4.2_[G10A]] yielded a dissociation constant Kd of 18.1 nM. Against the preceding molecule, the Kd is about 34-fold lower.

Consider UCUCUUUUUUAUAUAUUAGUUCUCUU (ssRNA) [Id_iii_S1_P4E.6_K4.2_C4.3_[C-2T]_H4.2_A4.1_F4.1_T4.2], for which the Kd stood at 11 nM. This Kd is about 1.6-fold lower than that of the molecule before.

In turn, UCUCUUUCAUGUAUUUUAGUUCUCUU (ssRNA) [Id_iii_S1_P4E.8_K4.4_C4.3_[T-1A]_H4.1_A4.2_F4.1_T4.2] came in with a Kd of 1.37 nM.

For the molecule UCUCUUUCUUAUAUAUUACUUCUCUU (ssRNA) [Id_iii_S1_P4E.6_K4.2_C4.3_H4.2_A4.1_F4.1_T4.2_[G10C]], the Kd is 15.9 nM. This Kd is about 12-fold higher than that of the molecule before.

In turn, UCUCUUUGUUGUAUUUUAGUUCUCUU (ssRNA) [Id_iii_S1_P4E.8_K4.4_C4.3_[C-2G]_H4.1_A4.2_F4.1_T4.2] had a Kd of 2.23 nM.

Regarding UCUCUUUGUUUCAUUAUCUCUU (ssRNA) [Ib_S1_P5E.1_K5.1_C5.1_H5.1_[A4T]_A5.1_[T6C]_F5.1_T5.1], the Kd was found to be 24.4 nM.

The molecule UCUCUUUCGUGUAUAUUAGUUCUCUU (ssRNA) [Id_iii_S1_P4E.5_K4.1_C4.3_[T-1G]_H4.1_A4.1_F4.1_T4.2] yielded a Kd of 0.46 nM.

Molecule UCUCUUUCUUGUAAAUAUGUCUCUU (ssRNA) [Id_iii_S1_P3E.8_K3.4_C3.3_H3.1_A3.2_F3.1_T3.2_[A10G]] yielded an equilibrium dissociation constant (Kd) of 28.7 nM.

The molecule UCUCUUUCGUGUAUUUUAGUUCUCUU (ssRNA) [Id_iii_S1_P4E.8_K4.4_C4.3_[T-1G]_H4.1_A4.2_F4.1_T4.2] had a Kd of 1.23 nM. This Kd lies about 23-fold lower than the previous one.

In turn, UCUCUUUGUACACUAUUAGUUCUCUU (ssRNA) [Id_iii_S1_P4E.7_K4.3_C4.3_[C-2G]_H4.3_A4.1_F4.1_T4.2] displayed a Kd of 1.04 nM. The Kd values of the last two molecules are within 1.5-fold of each other.

UCUCUUUGUUUGAUUAUCUCUU (ssRNA) [Ib_S1_P5E.1_K5.1_C5.1_H5.1_[A4T]_A5.1_[T6G]_F5.1_T5.1] gave a Kd of 122 nM.

Consider UCUCUUUCUUGUAAAUAUCUCUCUU (ssRNA) [Id_iii_S1_P3E.8_K3.4_C3.3_H3.1_A3.2_F3.1_T3.2_[A10C]], for which binding was put at a Kd of 27.6 nM.

As for UCUCUUUCUACACUAUUAUUUCUCUU (ssRNA) [Id_iii_S1_P4E.7_K4.3_C4.3_H4.3_A4.1_F4.1_T4.2_[G10T]], the Kd was > 2300 nM.

Take UCUCUUUUUUGUAUUUUAGUUCUCUU (ssRNA) [Id_iii_S1_P4E.8_K4.4_C4.3_[C-2T]_H4.1_A4.2_F4.1_T4.2]: the affinity, expressed as Kd, was 1.81 nM.

UCUCUUUGUCUCAUUAUCUCUU (ssRNA) [Ib_S1_P5E.1_K5.1_C5.1_H5.1_[A4C]_A5.1_[T6C]_F5.1_T5.1] showed a Kd of 35.9 nM. Against the preceding molecule, the Kd is about 20-fold higher.

As for UCUCUUUUUACACUAUUAGUUCUCUU (ssRNA) [Id_iii_S1_P4E.7_K4.3_C4.3_[C-2T]_H4.3_A4.1_F4.1_T4.2], binding was characterised by a dissociation constant (Kd) of 1680 nM.

UCUCUUUCUUGUAUUUUAUUUCUCUU (ssRNA) [Id_iii_S1_P4E.8_K4.4_C4.3_H4.1_A4.2_F4.1_T4.2_[G10T]] gave a Kd of 2.43 nM.

As to UCUCUUUCUUAUAUAUUAUUUCUCUU (ssRNA) [Id_iii_S1_P4E.6_K4.2_C4.3_H4.2_A4.1_F4.1_T4.2_[G10T]], the Kd was 15.1 nM. This Kd lies about 6.2-fold higher than the previous one.

Take UCUCUUCCUUGUAAAUAUAUCUCUU (ssRNA) [Id_iii_S1_P3E.8_K3.4_C3.3_[T-3C]_H3.1_A3.2_F3.1_T3.2]: the Kd came out at 16.5 nM.

As for UCUCUUUCUUGUAUUUUAGCUCUCUU (ssRNA) [Id_iii_S1_P4E.8_K4.4_C4.3_H4.1_A4.2_F4.1_T4.2_[T11C]], the Kd was 1.07 nM.

On to UCUCUUUCUACACUAUUAAUUCUCUU (ssRNA) [Id_iii_S1_P4E.7_K4.3_C4.3_H4.3_A4.1_F4.1_T4.2_[G10A]], for which the Kd was > 2300 nM.

Molecule UCUCUUUCUUGUAUAUUAUUUCUCUU (ssRNA) [Id_iii_S1_P4E.5_K4.1_C4.3_H4.1_A4.1_F4.1_T4.2_[G10T]] had a Kd of 0.649 nM. This counts as sub-nanomolar.

In the case of UCUCUUUUUUGUAUAUUAGUUCUCUU (ssRNA) [Id_iii_S1_P4E.5_K4.1_C4.3_[C-2T]_H4.1_A4.1_F4.1_T4.2], the affinity, expressed as Kd, was 0.395 nM.

For the molecule UCUCUUUAUUGUAUAUUAGUUCUCUU (ssRNA) [Id_iii_S1_P4E.5_K4.1_C4.3_[C-2A]_H4.1_A4.1_F4.1_T4.2], the Kd was 0.362 nM.

UCUCUUCCUUGUAUAUUAGUUCUCUU (ssRNA) [Id_iii_S1_P4E.5_K4.1_C4.3_[T-3C]_H4.1_A4.1_F4.1_T4.2] yielded a Kd of 0.347 nM.

UCUCUUUCUUGUAUAUUACUUCUCUU (ssRNA) [Id_iii_S1_P4E.5_K4.1_C4.3_H4.1_A4.1_F4.1_T4.2_[G10C]]: the Kd amounted to 1.02 nM.
